Experimental data taken from article PMC5300155, “Biochemical and biophysical investigations of the interaction between human glucokinase and pro-apoptotic BAD” (PLoS ONE, 2017).
Numbering of substitutions follows the chain as printed. Names and notes keep the numbering of the source.

T1: human pancreatic GCK (Homo sapiens, UniProt P35557)
T1 construct: hexahistidine (N); made in house; host or cells: glucokinase auxotroph BM5340(DE3)
T1 sequence (P35557 1-465): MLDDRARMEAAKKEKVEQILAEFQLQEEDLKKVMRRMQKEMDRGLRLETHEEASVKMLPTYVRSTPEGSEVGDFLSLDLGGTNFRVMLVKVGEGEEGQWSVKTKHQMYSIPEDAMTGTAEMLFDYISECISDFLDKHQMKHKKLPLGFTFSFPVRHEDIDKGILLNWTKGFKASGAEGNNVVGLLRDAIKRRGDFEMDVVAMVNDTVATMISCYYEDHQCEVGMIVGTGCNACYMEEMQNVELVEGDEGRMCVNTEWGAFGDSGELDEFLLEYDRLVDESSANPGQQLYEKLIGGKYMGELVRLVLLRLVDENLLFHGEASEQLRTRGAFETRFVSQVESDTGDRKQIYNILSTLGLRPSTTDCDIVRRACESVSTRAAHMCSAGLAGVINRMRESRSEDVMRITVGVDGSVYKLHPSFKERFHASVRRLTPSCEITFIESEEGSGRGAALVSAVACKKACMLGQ

T2: GCK (Homo sapiens, UniProt P35557)
T2 construct: hexahistidine (N); made in house; host or cells: glucokinase auxotroph BM5340(DE3)
T2 sequence (P35557 1-465): T1 sequence (P35557 1-465)

B1: S75D-S99D-S118D triple variant of BAD-GST (natural protein, human, UniProt Q92934 1-168, looked up)
chain: MFQIPEFEPSEQEDSSSAERGLGPSPAGDGPSGSGKHHRQAPGLLWDASHQQEQPTSSSHHGGAGAVEIRSRHSDYPAGTEDDEGMGEEPSPFRGRSRDAPPNLWAAQRYGRELRRMDDEFVDSFKKGLPRPKSAGTATQMRQSSSWTRVFQSWWDRNLGRGSSAPSQ
notes: BAD, human; 507 bp bad cDNA amplified from the IMAGE clone; triple phosphomimic; also called 3SD; source: E. coli BL21(DE3), purified as BAD-GST; not shown: GST, C-terminal, kept
B2: S118D variant: S118D phosphomimic variant of BAD-GST (protein)
chain: B1 chain with D75S, D99S
modifications: left off: His6, N-terminal, state not stated | GST, C-terminal, kept
B3: phosphorylated BAD: phosphorylated BAD after cleavage of the GST tag (protein)
chain: B1 chain with D75S, D99S, D118S
modifications: phosphoserine at 75, 99 and 118 (by PKA, as for phosphorylated BAD-GST); left off: His6, N-terminal, state not stated | GST, C-terminal, cleaved
notes: phosphorylated BAD after cleavage of the GST tag
B4: 3SA: BAD-GST variant in which alanine was substituted at the three target serine residues (protein)
chain: B1 chain with D75A, D99A, D118A
modifications: left off: His6, N-terminal, state not stated | GST, C-terminal, kept
notes: BAD-GST variant in which alanine was substituted at the three target serine residues
B5: S75D-S99D-S118D triple variant of BAD-GST: S75D-S99D-S118D triple variant of BAD-GST, mimics fully phosphorylated protein (protein)
chain: B1 chain
modifications: left off: His6, N-terminal, state not stated | GST, C-terminal, kept
notes: S75D-S99D-S118D triple variant of BAD-GST, mimics fully phosphorylated protein
B6: S75D-S99D double variant of BAD-GST (natural protein, human, UniProt Q92934 1-168, looked up)
chain: B1 chain with D118S
notes: BAD, human; 507 bp bad cDNA amplified from the IMAGE clone; double phosphomimic; source: E. coli BL21(DE3), purified as BAD-GST; not shown: GST, C-terminal, kept
B7: S118D BAD-GST variant (natural protein, human, UniProt Q92934 1-168, looked up)
chain: B1 chain with D75S, D99S
notes: BAD, human; 507 bp bad cDNA amplified from the IMAGE clone; phosphomimic; also called S118D variant; BAD-GST S118D; source: E. coli BL21(DE3), purified as BAD-GST; not shown: GST, C-terminal, kept

Tests used:
[1] = target: recombinant human Bcl-xL, Δ45–84, Δ210–233 variant (human) (UniProt Q07817); assay: fluorescence polarisation; competition: 200 nM f-BH3, 50 nM Bcl-xL, BAD forms varied 0–50 μM; room temperature
Sequence of recombinant human Bcl-xL, Δ45–84, Δ210–233 variant (human) (Q07817 other isoform, or with tags, fused parts or gaps mutant): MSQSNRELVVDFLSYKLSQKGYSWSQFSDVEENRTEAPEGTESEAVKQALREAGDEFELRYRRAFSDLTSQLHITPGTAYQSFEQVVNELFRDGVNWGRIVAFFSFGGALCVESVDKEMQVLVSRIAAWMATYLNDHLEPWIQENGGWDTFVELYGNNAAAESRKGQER

[2] = target: T3, recombinant human Bcl-xL, Δ45–84, Δ210–233 variant (human, UniProt Q07817-1 1-209, Δ45–84); assay: as above; conditions: both partners purified
T3 construct: Bcl-xL, human; loop 45-84 deleted and C-terminal residues 210-233 lacking; also called soluble, recombinant Bcl-xL
T3 sequence (Q07817 other isoform, or with tags, fused parts or gaps Δ45–84 | Δ45–84 | mutant): as the sequence (Q07817 other isoform, or with tags, fused parts or gaps mutant) above

Bcl-xL = target: T4, Bcl-xL (Homo sapiens, UniProt Q07817, DEL45-84); assay: Fluorescence polarization competition with f-BH3 for binding to Bcl-xL; conditions: ITC and fluorescence polarization assays
T4 construct: made in house
T4 sequence (Q07817 with tags, fused parts or gaps DEL45-84): as the sequence (Q07817 other isoform, or with tags, fused parts or gaps mutant) above
Method: Exon 1 of human bcl-xl lacking the C-terminal residues 189–233 was obtained from Stanley Korsmeyer (Addgene plasmid 8755) and site-directed mutagenesis was performed to create the Δ45–84, Δ210–233 variant. Bcl-xL was expressed and purified using a modified procedure described previously. Briefly, Bcl-xL was purified by nickel affinity chromatography and dialyzed against potassium phosphate buffer (20 mM, pH 7.4) containing NaCl (50 mM), EDTA (1 mM), and DTT (10 mM). Protein was applied to a Superdex 200 10/30 HR size-exclusion column, at a flow rate of 0.02 mL/min, to remove aggregate and oligomers prior to binding assays.
A fluorescence polarization assay developed by Zhang, et al. was utilized to measure interactions between BAD and its binding partners. Two 21-residue FITC-labeled peptides containing the BH3 domain of BAD were synthesized and purified to >95% by Peptide2.0 (f-BH3 = NLWAAQRYGRELRRMSDK(FITC)FVD; f-pBH3 = NLWAAQRYGRELRRM(p)SDK(FITC) FVD). Polarization was measured at room temperature with an excitation wavelength of 485 nm and an emission wavelength of 530 nm using a SpectraMax M5 microplate reader (Molecular Devices). Experiments to measure binding constants of the fluorescent peptides to Bcl-xL or GCK were performed in black 96-well plates. Each well contained 15 nM peptide, 60 μL BAD buffer (0.1 M Tris, 0.1 M KCl, 0.5 M arginine, 2.5 mM CHAPS, 5 mM TCEP, 10% glycerol, pH 8.5) and variable concentrations of Bcl-xL (0–2.25 μM) or GCK (0–400 μM) in assay buffer (20 mM phosphate buffer, pH 7.4, 1 mM EDTA, 50 mM NaCl, 10 mM DTT) in a final volume of 120 μL. High GCK concentrations were chosen in an effort to detect a signal indicating a binding event. Assays containing GCK also contained 250 mM glucose. […] Plates were incubated at room temperature in the dark for 15 min prior to polarization measurements.

human pancreatic GCK [3] = target: T1, human pancreatic GCK; assay: Isothermal titration calorimetry with GCK; format: binding; conditions: GCK (100 μM) titrated into S118D BAD-GST (10–15 μM), 13 μL injections, BAD buffer pH 8.5, 25°C
Method: (§1) Recombinant human pancreatic GCK containing an N-terminal hexahistidine tag was produced in the glucokinase auxotroph BM5340(DE3) and purified using a previously described procedure. TEV protease was expressed as a GST-fusion protein from a pGEX plasmid encoding the S219V variant, provided by David Waugh (Addgene plasmid 8827). Expression was induced with IPTG (1 mM) for 4 h at 30°C. Cell pellets were resuspended in Tris buffer (50 mM, pH 8.0) containing NaCl (100 mM), glycerol (10% v/v), benzamidine (1 mM) and dithiothreitol (10 mM) and lysed via French Press. Polyethyleneimine (0.1%) was added to the lysate and protein was purified on a glutathione-affinity column (GSTrap, GE Sciences). TEV protease was flash frozen and stored at -80°C for up to 1 month.
Isothermal titration calorimetry was performed at 25°C using a MicroCal VP-ITC (GE Healthcare) instrument. Bcl-xL (100 μM) in BAD buffer (0.1 M Tris, 0.1 M KCl, 0.5 M arginine, 2.5 mM CHAPS, 5 mM TCEP, 10% glycerol, pH 8.5) was titrated into the calorimeter cell containing size-exclusion chromatography purified BAD-GST (10–18 μM) in 4 μL injections. A 21-residue phosphorylated peptide containing the BH3 domain of BAD was synthesized and purified to >95% by Peptide2.0 (pBH3 = NLWAAQRYGRELRRM(p)SDKFVD). The peptide (300 μM) in potassium phosphate buffer (25 mM) containing KCl (25 mM), TCEP (4 mM) and DMSO (5%) with and without glucose (200 mM) was titrated into the cell containing GCK (10 μM) previously dialyzed against the same buffer. GCK (100 μM) in BAD buffer was titrated into the cell containing S118D BAD-GST (10–15 μM) in 13 μL injections. Data were analyzed using Origin software.

GCK = target: T2, GCK; assay: GCK activity, microplate G6PDH-linked assay as described by Szlyk et al. (37°C); format: biochemical; conditions: S118D BADGST 5 μM, or pBH3 5 μM; GCK 7.5 nM, 96 well plate; S2 Fig
Method: Steady state kinetics were also performed as described by Szlyk, et al.[13]. Briefly, G6PDH-linked assays were performed in clear 96-well plates at 37°C with a SpectraMax M5 microplate reader (Molecular Devices) recording absorbance at 340 nm every 30 s. Reaction mixtures contained GCK (7.5 nM), HEPES (100 mM, pH 7.4), KCl (150 mM), MgCl2(6 mM), DTT (1 mM), NAD (1 mM), BSA (0.05%), G6PDH (2.5 U), glucose (0.5–100 mM), and ATP (5 mM) in the presence or absence of BAD-GST S118D variant (5 μM) or phosphorylated BAD BH3 peptide (5 μM) in a final volume of 100 μL.
GCK (7.5 nM) was assayed in the presence of A. S118D BADGST (5 μM) or B. pBH3 (5 μM) in a 96 well plate using a microplate reader. Buffer conditions were as follows: Ref [13]: 100 mM Hepes, pH 7.4; 150 mM KCl; 1 mM NAD+; 0.05% BSA; 6 mM MgCl2; 1 mM DTT; 2.5 U G6PDH; 5 mM ATP. Optimal GCK conditions: 100 mM Hepes, pH 7.4; 150 mM KCl; 1 mM NADP+; 6 mM MgCl2; 10 mM DTT; 1.5 U G6PDH; 5 mM ATP. (EPS) Click here for additional data file.

human pancreatic GCK [4] = target: T1, human pancreatic GCK; assay: GCK activity, G6PDH-linked assay (lab's routine assay, 25°C); format: biochemical; conditions: for Increase in GCK activity relative to unmodified / wild-type protein: only at glucose concentrations below K0.5 (3SD, 3SA), phosphorylated BAD after cleavage of GST tag
Method: as §1
GCK activity was assayed using a glucose 6-phosphate dehydrogenase (G6PDH)-linked assay at 25°C. 50 nM GCK was assayed in buffer containing HEPES (100 mM, pH 7.4), KCl (50 mM), NADP^+ (0.5 mM), DTT (10 mM), MgCl2 (7 mM), G6PDH (1.5 U) and glucose (0–100 mM) in a total volume of […]. Addition of ATP (6 mM) initiated the reaction. Production of NADPH was measured at 340 nm. To determine the effect of BAD on GCK activity, 5 μL of BAD or buffer control was added to the reaction in a final volume of 100 μL. K0.5 values were determined by fitting to the Hill equation. The effect of BAD on GCK activity is reported as the percent rate increase at individual glucose concentrations, calculated as the average of a minimum of four rates of BAD-containing assays divided by the average of rates of BAD buffer-containing assays. The results represent the average of at least three independent preparations of pure BAD.

Row | Molecule | IC50 [2] [nM] | Increase in GCK activity relative to unmodified / wild-type protein (human pancreatic GCK [4]) | also measured
1 | BAD following cleavage and removal of the GST tag (from UniProt Q92934 1-168) (natural protein) | – | – | IC50 [1]: 440 nM
2 | B1 | > 19000 | – | –
3 | B2 | – | – | Ability to interact with Bcl-xL (in words) (Bcl-xL): significantly impaired in their ability to interact with Bcl-xL; Binding to GCK by ITC (human pancreatic GCK [3]): no detectable binding event; Effect on GCK kinetics under Szlyk et al. buffer conditions (GCK): did not increase BAD’s effects on GCK kinetics
4 | B3 | – | to a similar extent as unmodified BAD | –
5 | B4 | – | to the same relative extent as wild-type BAD-GST | –
6 | B5 | – | to the same relative extent as wild-type BAD-GST | Activation of GCK by triple variant (human pancreatic GCK [4]; 0.78 mM glucose, > 2 μM, comparable to phosphorylated BAD (15%)): A comparable degree of activation
7 | B6 | 87 | – | –
8 | B7 | > 15000 | – | –
